From publication PMC6795539 (Nature medicine, 2019)
Changes are numbered by the printed parent chain.

B1: NZM-mFc, variant of NZM in which the human Fc was replaced with the murine counterpart (antibody, V domains shown)
VH: QVQLVQSGAEVKKPGASVKVSCKASGFNIKDTYIHWVRQAPGQRLEWMGRIDPANGYTKYDPKFQGRVTITADTSASTAYMELSSLRSEDTAVYYCAREGYYGNYGVYAMDYWGQGTLVTVSS
VL: DIQMTQSPSSLSASVGDRVTITCKTSQDINKYMAWYQQTPGKAPRLLIHYTSALQPGIPSRFSGSGSGRDYTFTISSLQPEDIATYYCLQYDNLWTFGQGTKVEIK
B2: NZM variant var1 (light chain CDR2 modified), full human IgG4 (antibody, V domains shown)
VH: B1 VH
VL: B1 VL with S52K, A53G, L54N
B3: NZM variant var2 (light chain CDR2 modified), full human IgG4 (antibody, V domains shown)
VH: B1 VH
VL: B1 VL with S52K, A53G, L54N, P56S
B4: Natalizumab (NZM), humanized monoclonal IgG4 antibody to α4 integrins (antibody, V domains shown)
VH: B1 VH
VL: B1 VL
B5: NZM variant var3 (light chain CDR2 modified), full human IgG4 (antibody, V domains shown)
VH: B1 VH
VL: B1 VL with S52K, A53S, L54N
B6: NZM variant var4 (light chain CDR2 modified), full human IgG4 (antibody, V domains shown)
VH: B1 VH
VL: B1 VL with S52K, A53S, L54N, P56S

The binders below were run against T1, α4 integrin on the surface of T cells (Homo sapiens, UniProt P13612) (assay: flow cytometry on cells).

Question: Does B1 bind?
Answer: Result: binds

Molecular target: T1, α4 integrin on the surface of T cells
Assay: flow cytometry on cells
Remark: another data set of the same source

Question: Does B2 bind?
Answer: Result: binds

Question: Does B3 bind?
Answer: Result: binds

Question: Does B4 bind?
Answer: Result: binds

Question: Does B5 bind?
Answer: Result: binds

Question: Does B6 bind?
Answer: Result: binds
